The test concerns the target T1, epidermal growth factor receptor (EGFR) (human (endogenous in A-431, DU-145, …, UniProt P00533 25-1210)).
T1 construct: also called ErbB1; HER1
As to the kind of experiment: radioligand binding; saturation assay on living A-431 cells; eight concentrations of radiolabeled protein 0.22 to 40 nM, 4 h at 4 °C; nonspecific binding with 50-fold molar excess of unlabeled (HE)3-E01; nonlinear regression. The note with it: one partner purified.

B1: [^99mTc]Tc-(HE)3-E01 (designed binder)
chain: MRGSHEHEHEGSDLGKKLLEAARAGQDDEVRILMANGADVNADDTWGWTPLHLAAYQGHLEIVEVLLKNGADVNAYDYIGWTPLHLAADGHLEIVEVLLKNGADVNASDYIGDTPLHLAAHNGHLEIVEVLLKHGADVNAQDKFGKTAFDISIDNGNEDLAEILQKLN
modifications: [^99mTc]Tc(CO)3^+ with the (HE)3 tag as a chelator at the N-terminus
notes: DARPin E01 with the N-terminal (HE)3 tag; also called DARPin (HE)3-E01 labeled with [^99mTc]Tc(CO)3; technetium-labeled variant; source: E. coli, purified; labeled with [^99mTc]Tc(CO)3, isolated on NAP-5 size-exclusion column; not shown: (HE)3, N-terminal, kept
One may read the Kd as the equilibrium constant for the complex coming apart. The low end stands for higher affinity, the high end for lower affinity. The molecule B1 had a Kd of 4.9 ± 0.5 nM.

B2: [^123I]I-(HE)3-E01-PIB (designed binder)
chain: B1 chain
modifications: [^123I]I-para-iodobenzoate (PIB) conjugated to the N-terminal or one of eight lysine amino groups (site-unspecific)
notes: DARPin E01 with the N-terminal (HE)3 tag; source: E. coli, purified; not shown: (HE)3, N-terminal, kept
In turn, B2 yielded a Kd of 2.5 ± 0.5 nM.

The record behind these values is article PMC12609441, “Comparative Preclinical Evaluation of the Tumor-Targeting Properties of Radioiodine and Technetium-Labeled Designed Ankyrin Repeat Proteins for Imaging of Epidermal Growth Factor Receptor Expression in Malignant Tumors” (International Journal of Molecular Sciences, 2025).
